Measurements as given in patent publication US20150297748A1 (Daiichi Sankyo, published 2015).

What was measured:
CD33 = CD33 (UniProt P20138 18-364, limits assumed); experiment: cell-based or functional assay
human B7-H3 variant 1 = molecular target: T1, human B7-H3 variant 1 (human, UniProt Q5ZPR3 27-534); experiment: cell-based or functional assay
T1 sequence: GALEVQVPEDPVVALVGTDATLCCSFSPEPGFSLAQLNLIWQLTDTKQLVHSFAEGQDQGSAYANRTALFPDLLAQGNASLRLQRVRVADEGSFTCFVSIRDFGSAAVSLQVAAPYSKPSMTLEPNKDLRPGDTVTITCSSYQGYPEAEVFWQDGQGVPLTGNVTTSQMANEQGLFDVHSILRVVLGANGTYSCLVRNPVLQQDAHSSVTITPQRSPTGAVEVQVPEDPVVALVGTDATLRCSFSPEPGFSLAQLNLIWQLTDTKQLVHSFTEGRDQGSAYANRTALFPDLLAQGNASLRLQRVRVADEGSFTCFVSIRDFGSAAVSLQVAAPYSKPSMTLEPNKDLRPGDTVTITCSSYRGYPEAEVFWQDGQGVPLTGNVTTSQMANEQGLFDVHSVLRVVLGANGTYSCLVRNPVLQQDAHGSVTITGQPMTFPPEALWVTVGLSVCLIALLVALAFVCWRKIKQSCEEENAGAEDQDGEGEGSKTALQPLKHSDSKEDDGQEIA

Sequence of CD33 (P20138 18-364 limits assumed): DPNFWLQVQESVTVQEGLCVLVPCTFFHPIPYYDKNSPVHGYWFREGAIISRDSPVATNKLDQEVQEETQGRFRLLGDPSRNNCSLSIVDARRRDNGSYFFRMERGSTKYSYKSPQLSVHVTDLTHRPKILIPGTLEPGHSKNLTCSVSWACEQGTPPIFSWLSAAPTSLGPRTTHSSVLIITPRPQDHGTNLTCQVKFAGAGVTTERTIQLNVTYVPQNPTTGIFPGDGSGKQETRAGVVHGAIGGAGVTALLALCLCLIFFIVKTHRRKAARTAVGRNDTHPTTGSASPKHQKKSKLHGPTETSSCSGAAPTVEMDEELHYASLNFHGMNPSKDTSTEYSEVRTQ

B1: Antibody-drug conjugate (8) (antibody, V domains shown)
VH: EVQLVQSGAEVKKPGSSVKVSCKASGYTITDSNIHWVRQAPGQSLEWIGYIYPYNGGTDYNQKFKNRATLTVDNPTNTAYMELSSLRSEDTAFYYCVNGNPWLAYWGQGTLVTVSS
VL: DIQLTQSPSTLSASVGDRVTITCRASQSLDNYGIRFLTWFQQKPGKAPKLLMYAASNQGSGVPSRFSGSGSGTEFTLTISSLQPDDFATYYCQQTKEVPWSFGQGTKVEVKR
modifications: drug-linker 6-maleimidohexanoyl-GGFG-NH-(CH2)3-C(=O)-exatecan (compound of Process 3 of Example 2) on cysteines of the reduced hinge disulfide bonds; average 3.4 per antibody molecule; positions not given
Question: For B1, which “IC50, cytotoxic activity against the HL-60 cells” value (CD33) is on record?
Answer: Its value is less than 100 pM.

B2: Antibody-drug conjugate (5) (antibody, human IgG1, kappa, V domains shown)
VH: QVQLVQSGAEVKKPGSSVKVSCKASGYTFTNYVMHWVRQAPGQGLEWMGYINPYNDDVKYNEKFKGRVTITADESTSTAYMELSSLRSEDTAVYYCARWGYYGSPLYYFDYWGQGTLVTVSS
VL: EIVLTQSPATLSLSPGERATLSCRASSRLIYMHWYQQKPGQAPRPLIYATSNLASGIPARFSGSGSGTDFTLTISSLEPEDFAVYYCQQWNSNPPTFGQGTKVEIKR
modifications: drug-linker 6-maleimidohexanoyl-GGFG-NH-(CH2)3-C(=O)-exatecan (compound of Process 3 of Example 2) on cysteines of the reduced hinge disulfide bonds; average 6.7 per antibody molecule; positions not given
Question: With B2 as the binder, how does the “IC50, cytotoxic activity against the CEM_V1-3.1-2 cells” value (“IC50 … against the CEM_V1-3.1-2 cells” for short) (human B7-H3 variant 1) read?
Answer: The value was less than 100 pM.

B3: Antibody-drug conjugate (32) (antibody, human IgG1, kappa, V domains shown)
VH: QVQLVQSGAEVKKPGSSVKVSCKASGYTFTNYVMHWVRQAPGQGLEWMGYINPYNDDVKYNEKFKGRVTITADESTSTAYMELSSLRSEDTAVYYCARWGYYGSPLYYFDYWGQGTLVTVSS
VL: EIVLTQSPATLSLSPGERATLSCRASSRLIYMHWYQQKPGQAPRPLIYATSNLASGIPARFSGSGSGTDFTLTISSLEPEDFAVYYCQQWNSNPPTFGQGTKVEIKR
modifications: drug-linker from N-(bromoacetyl)-beta-alanyl-GGFG-NH-(CH2)3-C(=O)-exatecan (compound of Process 3 of Example 30) on cysteines of the reduced hinge disulfide bonds; average 6.0 per antibody molecule; positions not given
Question: With B3 as the binder, how does the “IC50 … against the CEM_V1-3.1-2 cells” value (human B7-H3 variant 1) read?
Answer: Its value is less than 100 pM.

B4: Antibody-drug conjugate (16) (antibody, human IgG1, kappa, V domains shown)
VH: QVQLVQSGAEVKKPGSSVKVSCKASGYTFTNYVMHWVRQAPGQGLEWMGYINPYNDDVKYNEKFKGRVTITADESTSTAYMELSSLRSEDTAVYYCARWGYYGSPLYYFDYWGQGTLVTVSS
VL: EIVLTQSPATLSLSPGERATLSCRASSRLIYMHWYQQKPGQAPRPLIYATSNLASGIPARFSGSGSGTDFTLTISSLEPEDFAVYYCQQWNSNPPTFGQGTKVEIKR
modifications: drug-linker 3-maleimidopropanoyl-NH-(CH2CH2O)2-CH2CH2-C(=O)-GGFG-NH-(CH2)3-C(=O)-exatecan (compound of Process 1 of Example 14) on cysteines of the reduced hinge disulfide bonds; average 6.5 per antibody molecule; positions not given
Question: With B4 as the binder, how does the “IC50 … against the CEM_V1-3.1-2 cells” value (human B7-H3 variant 1) read?
Answer: The value was less than 100 pM.

B5: Antibody-drug conjugate (54) (antibody, human IgG1, kappa, V domains shown)
VH: QVQLVQSGAEVKKPGSSVKVSCKASGYTFTNYVMHWVRQAPGQGLEWMGYINPYNDDVKYNEKFKGRVTITADESTSTAYMELSSLRSEDTAVYYCARWGYYGSPLYYFDYWGQGTLVTVSS
VL: EIVLTQSPATLSLSPGERATLSCRASSRLIYMHWYQQKPGQAPRPLIYATSNLASGIPARFSGSGSGTDFTLTISSLEPEDFAVYYCQQWNSNPPTFGQGTKVEIKR
modifications: drug-linker 6-maleimidohexanoyl-GGFG-NH-(CH2)5-C(=O)-exatecan (compound of Process 5 of Example 54) on cysteines of the reduced hinge disulfide bonds; average 3.0 per antibody molecule; positions not given
Question: Which “IC50 … against the CEM_V1-3.1-2 cells” value (human B7-H3 variant 1) does the source give for B5 here?
Answer: The value was less than 100 pM.

B6: Antibody-drug conjugate (52) (antibody, human IgG1, kappa, V domains shown)
VH: QVQLVQSGAEVKKPGSSVKVSCKASGYTFTNYVMHWVRQAPGQGLEWMGYINPYNDDVKYNEKFKGRVTITADESTSTAYMELSSLRSEDTAVYYCARWGYYGSPLYYFDYWGQGTLVTVSS
VL: EIVLTQSPATLSLSPGERATLSCRASSRLIYMHWYQQKPGQAPRPLIYATSNLASGIPARFSGSGSGTDFTLTISSLEPEDFAVYYCQQWNSNPPTFGQGTKVEIKR
modifications: drug-linker 6-maleimidohexanoyl-GGFG-NH-(CH2)5-C(=O)-exatecan (compound of Process 5 of Example 54) on cysteines of the reduced hinge disulfide bonds; average 3.1 per antibody molecule; positions not given
Question: Which “IC50 … against the CEM_V1-3.1-2 cells” value (human B7-H3 variant 1) does the source give for B6 here?
Answer: The value was less than 100 pM.

B7: Antibody-drug conjugate (21) (antibody, human IgG1, kappa, V domains shown)
VH: QVQLVQSGAEVKKPGSSVKVSCKASGYTFTNYVMHWVRQAPGQGLEWMGYINPYNDDVKYNEKFKGRVTITADESTSTAYMELSSLRSEDTAVYYCARWGYYGSPLYYFDYWGQGTLVTVSS
VL: EIVLTQSPATLSLSPGERATLSCRASSRLIYMHWYQQKPGQAPRPLIYATSNLASGIPARFSGSGSGTDFTLTISSLEPEDFAVYYCQQWNSNPPTFGQGTKVEIKR
modifications: drug-linker 3-maleimidopropanoyl-NH-(CH2CH2O)2-CH2CH2-C(=O)-GGFG-NH-(CH2)3-C(=O)-exatecan (compound of Process 1 of Example 14) on cysteines of the reduced hinge disulfide bonds; average 5.5 per antibody molecule; positions not given
Question: How did the “IC50 … against the CEM_V1-3.1-2 cells” value (human B7-H3 variant 1) turn out when B7 was run?
Answer: Its value is less than 100 pM.

B8: Antibody-drug conjugate (45) (antibody, human IgG1, kappa, V domains shown)
VH: QVQLVQSGAEVKKPGSSVKVSCKASGYTFTNYVMHWVRQAPGQGLEWMGYINPYNDDVKYNEKFKGRVTITADESTSTAYMELSSLRSEDTAVYYCARWGYYGSPLYYFDYWGQGTLVTVSS
VL: EIVLTQSPATLSLSPGERATLSCRASSRLIYMHWYQQKPGQAPRPLIYATSNLASGIPARFSGSGSGTDFTLTISSLEPEDFAVYYCQQWNSNPPTFGQGTKVEIKR
modifications: drug-linker 6-maleimidohexanoyl-GGFG-NH-CH2CH2-O-CH2-C(=O)-exatecan (compound of Process 3 of Example 43) on cysteines of the reduced hinge disulfide bonds; average 3.7 per antibody molecule; positions not given
Question: Which “IC50 … against the CEM_V1-3.1-2 cells” value (human B7-H3 variant 1) does the source give for B8 here?
Answer: The value was less than 100 pM.
